Data reported in PMC3859580, “The PS1 Hairpin of Mcm3 Is Essential for Viability and for DNA Unwinding In Vitro”.

Molecular target: Mcm2-7 complex (wild type) (Saccharomyces cerevisiae, UniProt P29469;P24279;P30665;P29496;P53091;P38132 1-868;1-971;1-933;1-775;1-1017;1-845)
Assay: EMSA; 5 mM ATP, 10 mM Mg acetate; 50-400 nM complex, 1 nM DNA; shifted band diminished by anti-Mcm7; EMSA: 20 mM Tris-HCl pH 7.5, 10 mM Mg acetate, 100 uM EDTA, 5 mM DTT, 5 mM ATP, 37 C, 10 min; 5% native TBE gel with 5% glycerol, 0.1% NP-40, 10 mM Mg acetate
Settings: protein: recombinant; copies: 1;1;1;1;1;1; label: 5'-32P; single strand

B1: 90-base ssDNA oligonucleotide with (T)60 tail (ssDNA)
DNA: ATGTCCTAGCAAGCCAGAATTCGGCAGCGTCTTTTTTTTTTTTTTTTTTTTTTTTTTTTTTTTTTTTTTTTTTTTTTTTTTTTTTTTTTTT
**Q.** Does B1 bind?
**A.** binds
